Reference: publication PMC8476643 (2021)

Biological target: SARS-CoV-2 receptor-binding domain (RBD) (SARS-CoV-2, UniProt P0DTC2)
Assay: SPR

B1: 7D6 monoclonal antibody (antibody, V domains shown)
VH: EVQLQQSGAELVRPGASVKLSCTASGFNIKDTYIHWVKQRPEQGLEWIGRIDPGDGDTEYDPSFQGKATITADTSSNTAYLELSSLTSEDTAVYYCTRFYDYVDYGMDYWGQGTSVTVSS
VL: DIQMTQSPASLSASVGETVTITCRASGNIHNYLAWYQQKQGKSPQLLVYNAKTLADGVPSRFSGSGSGTQYSLKINSLQPEDFGSYYCQHFWSTPPWTFGGGTKLEVK
Kd: 3 pM
